Data: a protein production outcome set (Wang et al. 2014)

Assay: label from the status in PepcDB records
For “PEAERSTISLTRLHATIQNAPGVLGLVCTIIGEAGGNIVNLRMHHRQSDFFDTDIDVEVRDAKHLTNIQAALRACPSVETVDRTR”, the protein production was “failed”. With “PEKLPYLVELSPDGSDSRDKPKLYRLQLSVTEVGTEKFDDNSIQLFGPGIQPHHCDLTNMDGVVTVTPRSMDAETYVDGQRISETTMLQSGMRLQFGTSHVFKFVDP” the protein production was “not failed”. With “PETVCWGHVEEVELINDGSGLGFGIVGGKTSGVVVRTIVPGGLADRDGRLQTGDHILKIGGTNVQGMTSEQVAQVLRNCGNSVRMLVARDPAGDISVT” the protein production was “not failed”. For “PFKAGKARGLTTEQLNTRLDIDEFETGLMRLAQDSFSTDDYLFQEGQYLDEDTVLSWLARKKTGSDLKKAEKEDKNFKNEGLNPALPSSGSTEEKNESSPIYLASMLEHDYLVRKDKNSIQLGGVMIGLALNSVYYYREKTGDPQKEVEIKDSTLRQQGEKIAQEVINRLRKKDNLKNVPITVALYKQASKTSIVPGNFIAKTEVKAGSTDISNWDDINEKYVFYPADTTTAEKYPDDTEVFKRFKNSIEEYFPNYTGVVGTALYENDEMKKMKIDIPMQFYGKSEVVAFTQFLTGEVMDYYSKSSVDVEVNITSSDGQEAVIIRNAGDKEPTVHIYD”, the protein production was “failed”. With “PGVELRTAADFADDPRPLFELDAETSGDEPGDVDHEFTDYEAWLEETWRHPLLSHELTSVALVDGRPAAFSAARTDGATRYHTGMTGTARAFRGRGLAKLAKNDSLHRARAAGFTEAFTGNDAGNEPMLAINKWFGYEICATEVRYVRELG” the protein production was “failed”. For “PIKMGWLKKQRSIVKNWQQRYFVLRAQQLYYYKDEEDTKPQGCMYLPGCTIKEIATNPEEAGKFVFEIIPASWDQNRMGQDSYVLMASSQAEMEEWVKFLRRVAG”, the protein production was “not failed”. In the case of “PITFWYGKYIILIPSSYFKSVIDKRLKYIILHEYAHAKNRDTLHLIIFNIFSIIMSYNPLVHIVKRKIIHDNEVEADRFVLNNINKNEFKTYAESIM”, the protein production is reported as “failed”. For “PKKIMLVAGHGYNDPGAVGNGTNERDFIRKYITPNIAKYLRHAGHEVALYGGSSQSQDMYQDTAYGVNVGNKKDYGLYWVKSQGYDIVLEIHLDAAGESASGGHVIISSQFNADTIDKSIQDVIKNNLGQIRGVTPRNDLLNVNVSAEININYRLSELGFITNKNDMDWIKKNYDLYSKLIAGAIHGK”, the protein production was “failed”. In the case of “PLKEQKVINTANIKTNSKLDLAEYENGLINIATQQFDTESHVLQLNQYIPEKLIDELVAKVEAPVLTNIIEQDYFGKQNSNELSLSGVMIGLAMSSSVSNEEAMSKGTEVAKQLIEAINKNDKYNKSPITFAIFKQESTSSLKNGTYIASATVQKNDTNLGNWSTIDEKSYSYPSDEFTQAHGEDNTKINNFAKEIKGFSNGDFIPVNAKVSYKKDQMDTLNMNIVIKYNGKTELMALTQLAAQGMLDKLPKDAKVQLQIKSESKIEAVIIKEKNSDKPFVSFL”, the protein production is reported as “not failed”. For “PRLLCTATKQKNSGQNLEEDMGQSEQKADPPATEKTLLEEKVKLEEQLKETVEKYKRALADTENLRQRSQKLVEEAKLYGIQAFCKDLLEVADVLEKATQCVPKEEIKDDNPHLKNLYEGLVMTEVQIQKVFTKHGLLKLNPVGAKFDPYEHEALFHTPVEGKEPGTVALVSKVGYKLHGRTLRPALVGVVKEA”, the protein production was “failed”. In the case of “PSARDILQQGLDRLGSPEDLASRIDSTLLSPRATEEDVRNLVREASDYGFRCAVLTPVYTVKISGLAEKLGVKLCSVIGFPLGQAPLEVKLVEAQTVLEAGATELDVVPHLSLGPEAVYREVSGIVKLAKSYGAVVKVILEAPLWDDKTLSLLVDSSRRAGADIVKTSTGVYTKGGDPVTVFRLASLAKPLGMGVKASGGIRSGIDAVLAVGAGADIIGTSSAVKVLESFKSLV”, the protein production is reported as “not failed”. For “PSEAPERVMVPIANPKTVESLLDLAFIVRGQSSEPLYPLTVAQGTNGDAESEVAKAEKVLAHAVTYAAGASVPIQMLTRLDPNIASGIIRAIEETRITTLVIGWNGKRSTPQLIFGGILDQLLERTEEMVLVSK”, the protein production was “failed”. With “PSEPVTDEYLTSVTIGERKPLNDRIQLAEYDLRWPSMFSVAADKIRSALSEKALLVEHVGSTSVPGLAAKLIIDMLLGVTDSADEKSYVLPLEQQGFVLQAREPGWYEHRFFRLKSGDMEWHLHVFSAECEEIDRMLAFRNWLRVHDDDRQRYENVKRTLAARTWKHMQNYADAKSDIVREILGRA” the protein production was “failed”. For “PTNIHKIHEVQKKLQEEVSIVLIDIADIIVNPKKENGYSRDLYTLNSLIDSSISETYDNINNTLLSDTRFFLEHMDIIKSQRDILENLYSYVSQLNSTPPQAHILSAFIHKIGYTEFEAETGNLLLEELKRLMISMKNQPLPVDRTEFENRAILFLCLTELKQFLVNRKHAQML”, the protein production was “not failed”. For “PVAGPYITFTDAVNETTIMLKWMYIPASNNNTPIHGFYIYYRPTDSDNDSDYKKDMVEGDRYWHSISHLQPETSYDIKMQCFNEGGESEFSNVMICETKAR”, the protein production was “not failed”. For “PVRLEGDQVAAAEALVAAVAADSYSTTLLKGVTGSGKTEVYLEAVAECLRRGRQALVLLPEIALTSEFLARVEARFGARPAEWHSGVTATERRRLWRMVSEGQAQFVAGARSALFLPFRDLGLVVVDEEHDTSYKQEEGALYNARDMAVLRASICGCPAVLASATP”, the protein production was “failed”. In the case of “QAAPSQVVVIRQERAGQTSVSLLWQEPEQPNGIILEYEIKYYEKDKEMQSYSTLKAVTTRATVSGLKPGTRYVFQVRARTSAGCGRFSQAMEVETGKP”, the protein production is reported as “not failed”. With “QDHYKVLGLSKLRWQATSDEIRFCYRQKVLKHHPDKKKHRGIVMEKEEYFTCITKAYEQVGMSDVK” the protein production was “failed”. For “QERLKITALPLYFEGFLLIKRSGYREYEHYWTELRGTTLFFYTDKKSIIYVDKLDIVDLTCLTEQNSTEKNCAKFTLVLPKEEVQLKTENTESGEEWRGFILTVTELSVPQNVSLLPGQVIKLHEVLEREKKRRIE”, the protein production was “not failed”. With “QGLLRAIPSITEDMPRLPTIPGNPPSALINHQGCPFRDRCDYRLARCQAETPKFMPLNGRQSIACHVKAQSSISLIHQSA” the protein production was “failed”. With “QHTLKQFAADSALTTTTPLCSEVPLFDINALGDWTYLGTSLPAKFAKLFASILHCIDDEYFLITPVEKVRVQVEDAPLLIVDFERAQPHSLLNVSTSIGTLHHNVDIKQMKLTDDSVYLPLERGLWGKLGRACYYNFVNEFNLSDLNEQ” the protein production was “not failed”. In the case of “QIRMIAAIAHMGGHDLKDDRVKAMVYACLTGNAAKDILKDIGIVVGRKLTENAIKSISGKTITKINQAVGFRLLTKFGEKG”, the protein production is reported as “failed”. For “QKGWFPASHVKLLGPSSERATPAFHPVCQVIAMYDYAANNEDELSFSKGQLINVMNKDDPDWWQGEINGVTGLFPSNYVKMTTDS”, the protein production was “not failed”. With “QKSVRVGISFDISEQKEGEALFEIISQNVTDVIWVYDLKLNRFRYISPSVEAMRGLPKEEAEAMSLEETLTPSSYQRAMQILEGERLRLSNPSHREIKIFSEFFDQYTHDGEVIETEVTARVVQDEG” the protein production was “failed”. With “QKVEFRKRMEKEVSDFIQDSGQIKKKFQPMNKIERSILHDVVEVAGLTSFSFGEDDDCRYVMIFKKEFAPSDEELDSYRRG” the protein production was “not failed”. For “QLTVRRVAEHDLAALSEKAGGPVSIGTRDRLQVVYVDTIHDRGNNGAKPDIGSSRPLLHTAMGRALLYTFDAAERELLMPLLLEQEPQQGDAARAALEEAFAQIARTGFCTSYGSWRPELAGLAAPLRYRAGDLPFAINLTLPIDAVKDGRAEQEFGPYLARLAQSIDRRLGVDV”, the protein production was “failed”. In the case of “QNHFHVFVGDLSPQITTEDIKAAFAPFGRISDARVVKDMATGKSKGYGFVSFFNKWDAENAIQQMGGQWLGGRQIRTNWATRKPPAPKSTYES”, the protein production is reported as “failed”. In the case of “QSNQAWFGNDAFFNAVCFNEAVAKQLNLPKPTSWEDLTKPVYKGHIVMPNPASSGTGYMQVSAWLQNMGEDQAWNYMRDLDKNIAHYTHSGSKPCVQAGMGEVAIGISMASRGAKLKTQGAPLAVITPKGIGWESEAVGLVKESDAAKRVVDWSISKAANELYVEMYPVVGH”, the protein production is reported as “failed”. For “QSYSGGIRLDTLFIDEGFGSLDPESLDLAIQTLVDLQQTGRMIGVISHVSELKEQMALRIDVEPSRFGSTVSVKSQMLISK”, the protein production was “failed”. In the case of “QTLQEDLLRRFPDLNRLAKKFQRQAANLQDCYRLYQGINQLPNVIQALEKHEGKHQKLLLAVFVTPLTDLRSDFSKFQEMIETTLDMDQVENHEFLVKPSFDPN”, the protein production is reported as “failed”.
